Measurements reported in article PMC9890229.

Columns and labels:
[1] = target: Crc R90E,Y91F (Flag-tagged, from pME4510crc(R90E,Y91F)Flag) (Pseudomonas aeruginosa) (UniProt Q51380)
[2] = target: Pseudomonas aeruginosa Hfq (Pseudomonas aeruginosa) (UniProt Q9HUM0)
[3] = target: Hfq (Pseudomonas aeruginosa) (UniProt Q9HUM0); experiment: EMSA; conditions: EMSA: 20 mM Tris-HCl pH 8.0, 40 mM NaCl, 10 mM KCl, 1 mM MgCl2; 200 nM RNA; 15 min at 37 C; 4% PAA gel in 1x TBE at 4 C, SYBR gold

| Substance | translational repression of the rbsB+13::lacZ reporter gene (β-galactosidase activity) in P. aeruginosa PAO1Δcrc [1] [fold] | de-repression of translation of the amiE+60::lacZ reporter gene (β-galactosidase activity) in P. aeruginosa PAO1Δcrc [2] [fold] | de-repression of translation of the estA+18::lacZ reporter gene (β-galactosidase activity) in P. aeruginosa PAO1Δcrc [2] [fold] | binding [3] |
| --- | --- | --- | --- | --- |
| Crc R90E,Y91F (Flag-tagged, from pME4510crc(R90E,Y91F)Flag) (from UniProt Q51380 1-259) (natural protein) | 2 | 7 | 2 | – |
| GGAACGCAAACGUUUGCGUCUGGAUAAUCUCCUGGAAAAGCCUCAAUACAACGAUAAGAAAAGCUGGAGGAUACACCAUGAAGCGGGUCGCUUCCCGGCGCCUGUUGGCU [rbsB110] | – | – | – | binds |
| GGCUGAGGAGGCUUUACGACGGGCCCCGGGGCGCAUGCCGACGACGCGGCGGCCCGACAAUAAAAACAAAUCAUGGAGUAAGAGAAUGAUCAGAAUGGCGCUCAAGCCACUGGUAGCG [estA118] | – | – | – | binds |
| GGGCCUUUUUUCGUCCCGAAAAAAUAACAACAAGAGGUGAUAUCCAUGCGUCACGGCGAUAUUUCCAGCAGCAACGACACCGUCGGAGUGGCGGUGGUCAACUAC [amiE105] | – | – | – | binds |
